Molecular target: the molecule itself
Test: SDS-PAGE and Western blot of SDS-resistant high molecular weight forms; 5 ug recombinant CRES monomer alone, 50 mM sodium phosphate pH 8, room temperature 3 h with shaking and silicon beads, no ThT; 25,000 x g pellet in Laemmli buffer, Western blot for CRES

B1: Tag-less full-length mouse CRES C48A protein (recombinant) (natural protein, UniProt P32766 20-142, looked up)
chain: VGVDQSKNEVKAQNYFGSINISNANVKQAVWFAMKEYNKESEDKYVFLVDKILHAKLQITDRMEYQIDVQISRSNCKKPLNNTENCIPQKKPELEKKMSCSFLVGALPWNGEFNLLSKECKDV
notes: Cystatin-related epididymal spermatogenic protein (CRES, Cst8), mouse, called tag-less and full-length; C48A introduced to prevent inappropriate disulfide bond formation; a recombinant form without the signal peptide is possible (surmise); also called CRES monomer; recombinant CRES protein
binding result: binds

Source: PMC12818389, “The Functional Epididymal Amyloid Cystatin‐Related Epididymal Spermatogenic (CRES) is a Component of the Mammalian Brain Extracellular Matrix” (Journal of Neuroscience Research, 2026)
